In patent publication US20150344570A1 (published 2015) one finds He/Con_1a, He/Con_2b and He/Con_3a data, which are given here for nine molecules.

One test concerns the target T1, FcγRIa (human, UniProt P12314 16-292).
T1 construct: extracellular domain; Soluble extracellular domain with C-terminal His tag, used as analyte; also called FcgRI; CD64; not shown: His tag at the C terminus
Put plainly: SPR (Biacore), captured antibody, FcγR as analyte, relative binding. In general terms: SPR reads the build-up and loss of mass on a sensor chip optically.

Another test concerns the target T2, FcγRIIb (human, UniProt P31994 43-217).
T2 construct: extracellular domain; Soluble extracellular domain with C-terminal His tag, used as analyte; also called FcgRIIb; CD32B; not shown: His tag at the C terminus
T2 sequence (looked up): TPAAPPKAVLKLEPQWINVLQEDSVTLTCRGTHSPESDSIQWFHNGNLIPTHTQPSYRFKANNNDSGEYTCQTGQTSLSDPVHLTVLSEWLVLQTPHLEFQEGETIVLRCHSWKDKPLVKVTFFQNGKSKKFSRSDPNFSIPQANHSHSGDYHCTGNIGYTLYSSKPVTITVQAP
Described as above.

The target of test [1] is T3, FcγRIIIa extracellular domain with C-terminal His tag (human, UniProt P08637 17-208).
T3 construct: extracellular domain; also called 3a; FcgRIIIa; not shown: His tag at the C terminus
T3 sequence (P08637 17-208): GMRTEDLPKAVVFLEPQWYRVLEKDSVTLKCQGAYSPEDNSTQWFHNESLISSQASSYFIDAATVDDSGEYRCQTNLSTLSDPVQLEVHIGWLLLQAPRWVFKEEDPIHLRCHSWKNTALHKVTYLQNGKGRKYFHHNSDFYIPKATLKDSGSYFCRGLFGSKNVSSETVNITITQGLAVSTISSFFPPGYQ
Put plainly: SPR (Biacore), relative to GpH7-A5/GpH7-B3/GpL16-k0 = 100.

Test [2] concerns the target T4, FcγRIIb extracellular domain with C-terminal His tag (human, UniProt P31994 43-217).
T4 construct: extracellular domain; also called 2b; FcgRIIb; not shown: His tag at the C terminus
T4 sequence (looked up): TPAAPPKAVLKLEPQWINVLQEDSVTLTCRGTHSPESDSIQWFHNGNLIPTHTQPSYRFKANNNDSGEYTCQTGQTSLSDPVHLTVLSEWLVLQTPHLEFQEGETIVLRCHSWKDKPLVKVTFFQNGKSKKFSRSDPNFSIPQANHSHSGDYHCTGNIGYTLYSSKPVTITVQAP
The test is described as above.

T1 sequence (P12314 16-292): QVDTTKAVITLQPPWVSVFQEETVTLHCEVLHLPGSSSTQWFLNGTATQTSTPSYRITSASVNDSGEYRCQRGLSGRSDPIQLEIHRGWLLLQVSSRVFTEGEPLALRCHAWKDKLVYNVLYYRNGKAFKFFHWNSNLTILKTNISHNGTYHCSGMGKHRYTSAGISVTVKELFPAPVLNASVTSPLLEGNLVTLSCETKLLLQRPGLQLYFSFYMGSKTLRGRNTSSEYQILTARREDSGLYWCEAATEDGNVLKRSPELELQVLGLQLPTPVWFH

B1: GpH7-A5/GpH7-B3 variant Y300_05P/GpL16-k0 (antibody, human IgG1, kappa)
heavy 1: not shown
heavy 2: not shown
light: DIVMTQSPLSLPVTPGEPASISCQASESLVHSNRNTYLHWYLQKPGQSPQLLIYKVSNRFSGVPDRFSGSGSGTDFTLKISRVEAEDVGVYYCSQNTHVPPTFGQGTKVEIERTVAAPSVFIFPPSDEQLKSGTASVVCLLNNFYPREAKVQWKVDNALQSGNSQESVTEQDSKDSTYSLSSTLTLSKADYEKHKVYACEVTHQGLSSPVTKSFNRGEC
notes: He Ab: mutation in one H chain only; also called He Ab
B1: the He/Con_1a in the test with FcγRIa is 60.2 % of GpH7-A5/GpH7-B3/GpL16-k0. Besides, the He/Con_2b with FcγRIIb is 7.3 % of GpH7-A5/GpH7-B3/GpL16-k0.

B2: GpH7-A5/GpH7-B3 variant Y300_08L/GpL16-k0 (antibody, human IgG1, kappa)
heavy 1: not shown
heavy 2: not shown
light: DIVMTQSPLSLPVTPGEPASISCQASESLVHSNRNTYLHWYLQKPGQSPQLLIYKVSNRFSGVPDRFSGSGSGTDFTLKISRVEAEDVGVYYCSQNTHVPPTFGQGTKVEIERTVAAPSVFIFPPSDEQLKSGTASVVCLLNNFYPREAKVQWKVDNALQSGNSQESVTEQDSKDSTYSLSSTLTLSKADYEKHKVYACEVTHQGLSSPVTKSFNRGEC
notes: as for B1
For the molecule B2, the He/Con_1a with FcγRIa was 113 % of GpH7-A5/GpH7-B3/GpL16-k0. Moreover, the He/Con_2b with FcγRIIb was 73.6 % of GpH7-A5/GpH7-B3/GpL16-k0.

B3: GpH7-A5/GpH7-B3 variant Y300_12R/GpL16-k0 (antibody, human IgG1, kappa)
heavy 1: not shown
heavy 2: not shown
light: DIVMTQSPLSLPVTPGEPASISCQASESLVHSNRNTYLHWYLQKPGQSPQLLIYKVSNRFSGVPDRFSGSGSGTDFTLKISRVEAEDVGVYYCSQNTHVPPTFGQGTKVEIERTVAAPSVFIFPPSDEQLKSGTASVVCLLNNFYPREAKVQWKVDNALQSGNSQESVTEQDSKDSTYSLSSTLTLSKADYEKHKVYACEVTHQGLSSPVTKSFNRGEC
notes: as for B1
For the molecule B3, the He/Con_1a with FcγRIa was 105 % of GpH7-A5/GpH7-B3/GpL16-k0. In addition, the He/Con_2b with FcγRIIb is 41.2 % of GpH7-A5/GpH7-B3/GpL16-k0.

B4: GpH7-A5/GpH7-B3 variant H268_03V/GpL16-k0 (antibody, human IgG1, kappa)
heavy 1: not shown
heavy 2: not shown
light: DIVMTQSPLSLPVTPGEPASISCQASESLVHSNRNTYLHWYLQKPGQSPQLLIYKVSNRFSGVPDRFSGSGSGTDFTLKISRVEAEDVGVYYCSQNTHVPPTFGQGTKVEIERTVAAPSVFIFPPSDEQLKSGTASVVCLLNNFYPREAKVQWKVDNALQSGNSQESVTEQDSKDSTYSLSSTLTLSKADYEKHKVYACEVTHQGLSSPVTKSFNRGEC
notes: IgG1, anti-glypican-3; also called He Ab
As for B4, the He/Con_3a in test [1] was 92.3 % (control = 100). Also, the He/Con_2b in test [2] is 114 % (control = 100).

B5: GpH7-A5/GpH7-B3 variant H268_20W/GpL16-k0 (antibody, human IgG1, kappa)
heavy 1: not shown
heavy 2: not shown
light: DIVMTQSPLSLPVTPGEPASISCQASESLVHSNRNTYLHWYLQKPGQSPQLLIYKVSNRFSGVPDRFSGSGSGTDFTLKISRVEAEDVGVYYCSQNTHVPPTFGQGTKVEIERTVAAPSVFIFPPSDEQLKSGTASVVCLLNNFYPREAKVQWKVDNALQSGNSQESVTEQDSKDSTYSLSSTLTLSKADYEKHKVYACEVTHQGLSSPVTKSFNRGEC
notes: as for B4
On to B5, for which, in test [1], the He/Con_3a is 82.8 % (control = 100). The He/Con_2b in test [2] is 111 % (control = 100).

B6: GpH7-A5/GpH7-B3 variant Y300_14T/GpL16-k0 (antibody, human IgG1, kappa)
heavy 1: not shown
heavy 2: not shown
light: DIVMTQSPLSLPVTPGEPASISCQASESLVHSNRNTYLHWYLQKPGQSPQLLIYKVSNRFSGVPDRFSGSGSGTDFTLKISRVEAEDVGVYYCSQNTHVPPTFGQGTKVEIERTVAAPSVFIFPPSDEQLKSGTASVVCLLNNFYPREAKVQWKVDNALQSGNSQESVTEQDSKDSTYSLSSTLTLSKADYEKHKVYACEVTHQGLSSPVTKSFNRGEC
notes: as for B1
For B6, in the test with FcγRIa, the He/Con_1a was 112 % of GpH7-A5/GpH7-B3/GpL16-k0. For the same molecule, the He/Con_2b with FcγRIIb was 55.6 % of GpH7-A5/GpH7-B3/GpL16-k0.

B7: GpH7-A5/GpH7-B3 variant A327_01G/GpL16-k0 (antibody, human IgG1, kappa)
heavy 1: not shown
heavy 2: not shown
light: DIVMTQSPLSLPVTPGEPASISCQASESLVHSNRNTYLHWYLQKPGQSPQLLIYKVSNRFSGVPDRFSGSGSGTDFTLKISRVEAEDVGVYYCSQNTHVPPTFGQGTKVEIERTVAAPSVFIFPPSDEQLKSGTASVVCLLNNFYPREAKVQWKVDNALQSGNSQESVTEQDSKDSTYSLSSTLTLSKADYEKHKVYACEVTHQGLSSPVTKSFNRGEC
notes: as for B4
B7: the He/Con_3a in test [1] is 72.4 % (control = 100). In test [2], the He/Con_2b is 116 % (control = 100).

B8: GpH7-A5/GpH7-B3 variant H268_15Y/GpL16-k0 (antibody, human IgG1, kappa)
heavy 1: not shown
heavy 2: not shown
light: DIVMTQSPLSLPVTPGEPASISCQASESLVHSNRNTYLHWYLQKPGQSPQLLIYKVSNRFSGVPDRFSGSGSGTDFTLKISRVEAEDVGVYYCSQNTHVPPTFGQGTKVEIERTVAAPSVFIFPPSDEQLKSGTASVVCLLNNFYPREAKVQWKVDNALQSGNSQESVTEQDSKDSTYSLSSTLTLSKADYEKHKVYACEVTHQGLSSPVTKSFNRGEC
notes: as for B4
As to B8, in test [1], the He/Con_3a was 97.5 % (control = 100). For the same molecule, the He/Con_2b in test [2] is 106 % (control = 100).

B9: GpH7-A5/GpH7-B3 variant Y300_16H/GpL16-k0 (antibody, human IgG1, kappa)
heavy 1: not shown
heavy 2: not shown
light: DIVMTQSPLSLPVTPGEPASISCQASESLVHSNRNTYLHWYLQKPGQSPQLLIYKVSNRFSGVPDRFSGSGSGTDFTLKISRVEAEDVGVYYCSQNTHVPPTFGQGTKVEIERTVAAPSVFIFPPSDEQLKSGTASVVCLLNNFYPREAKVQWKVDNALQSGNSQESVTEQDSKDSTYSLSSTLTLSKADYEKHKVYACEVTHQGLSSPVTKSFNRGEC
notes: as for B1
For the molecule B9, in the test with FcγRIa, the He/Con_1a is 111 % of GpH7-A5/GpH7-B3/GpL16-k0. Besides, the He/Con_2b with FcγRIIb is 87 % of GpH7-A5/GpH7-B3/GpL16-k0.
